Measured values taken from the supplement of paper PMC10126150.
± gives the standard deviation of the averaged measurements.

These sequences were tested on ATP (assay: switch fluorescence ratio, 500 uM ATP over buffer (Cy3 cluster intensity, sum of 5 cycles each) (fold (ratio)); higher = stronger signal-on switching upon ATP binding; sequences stand for … in TCGTCGGCAGCGTCAGATGTGTATAAGAGACAGTTTTTTTTTTTTTTTTTTTTTTTTT…TC). Conditions: aptamer strand: ATP DNA aptamer (quencher-CACCTGGGGGAGTATTGCGGAGGAAGG + anchor), 100 nM annealed; ATP concentration: 500 uM.
Method in brief: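 Per cluster, summed Cy3 intensity from the target cycles was divided by that from the buffer cycles to give the fluorescence ratio, then averaged per switch-domain sequence. Clusters outside 100-1000 RFU were excluded. The Cy3-labelled switching-strand clusters, on a modified Illumina MiSeq flow-cell, were annealed to 100 nM quencher-labelled ATP aptamer and imaged in selection buffer, then after 15 min with 500 uM ATP at 22 °C, for five cycles with NaOH stripping and re-annealing between them.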
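Note: ATP exposure 15 min at 22 °C before imaging.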

Sequence | switch fluorescence ratio
CGGGGGGCAT | 0.994 ± 0.022
CGGGGGGCCT | 1.01 ± 0.028
CGGGGGGGAA | 0.999 ± 0.03
CGGGGGGGG | 1 ± 0.059
CGGGGGGTCA | 1.01 ± 0.018
CGGGGGGTGC | 1.01 ± 0.082
CGGGGGTGTT | 0.998 ± 0.023
CGGGGGTTAC | 1.4 ± 0.56
CGGGGTACGG | 1.01 ± 0.017
CGGGGTATTG | 0.999 ± 0.039
CGGGGTCGG | 1 ± 0.014
CGGGGTCTGG | 0.978 ± 0.015
CGGGGTGGGT | 0.978 ± 0.028
CGGGGTGGTG | 1.04 ± 0.067
CGGGGTGTT | 0.994 ± 0.017
CGGGGTTAGC | 1.01 ± 0.014
CGGGTAACTT | 1.02 ± 0.046
CGGGTAGCTT | 1.017 ± 0.0093
CGGGTAGGGT | 0.998 ± 0.039
CGGGTATATT | 1.01 ± 0.032
CGGGTCATTT | 0.9691 ± 0.0035
CGGGTCGAGC | 1 ± 0.03

Sequence | switch fluorescence ratio
CGGGTCGCGG | 0.992 ± 0.031
CGGGTCGGCG | 1.01 ± 0.049
CGGGTCTAGC | 1.01 ± 0.021
CGGGTGCGTG | 0.981 ± 0.017
CGGGTGGCTG | 0.995 ± 0.035
CGGGTTAGTC | 1.07 ± 0.027
CGGGTTCTCG | 0.978 ± 0.025
CGGGTTGAG | 0.9967 ± 0.0066
CGGGTTGCAG | 0.97 ± 0.019
CGGGTTTAAG | 0.9933 ± 0.0026
CGGGTTTGGA | 0.998 ± 0.035
CGGGTTTGTT | 0.997 ± 0.02
CGGTACTTAT | 0.983 ± 0.017
CGGTAGAGGG | 0.982 ± 0.037
CGGTAGAGGT | 1.01 ± 0.016
CGGTAGGAAT | 1.018 ± 0.0077
CGGTAGTCGG | 1.03 ± 0.027
CGGTAGTTGT | 0.981 ± 0.014
CGGTATAATT | 0.999 ± 0.042
CGGTATATTT | 0.9712 ± 0.0058
CGGTATGAGG | 0.9 ± 0.11
CGGTCAATTG | 1 ± 0.036

Sequence | switch fluorescence ratio
CGGTCGACGA | 1.01 ± 0.024
CGGTCTGAGG | 1.017 ± 0.002
CGGTGAAGGG | 0.994 ± 0.027
CGGTGACTGC | 1.02 ± 0.099
CGGTGAGTAG | 0.9876 ± 0.0092
CGGTGCCAAG | 0.988 ± 0.042
CGGTGCTTGT | 1.02 ± 0.037
CGGTGGACTA | 1.008 ± 0.01
CGGTGGAGCT | 1.01 ± 0.052
CGGTGGCATA | 1.04 ± 0.018
CGGTGGCCGT | 1.02 ± 0.019
CGGTGGCGTA | 0.9975 ± 0.0035
CGGTGGCTGC | 0.967 ± 0.011
CGGTGGGATT | 0.979 ± 0.019
CGGTGGGTAA | 1.01 ± 0.026
CGGTGGGTC | 1.009 ± 0.0047
CGGTGGTCAG | 1.01 ± 0.0076
CGGTGTATTT | 0.9547 ± 0.0037
CGGTGTGTAG | 0.983 ± 0.062
CGGTGTGTCC | 0.97164 ± 0.00017
CGGTTAAGGC | 1.07 ± 0.017
CGGTTACGGA | 0.977 ± 0.035

Sequence | switch fluorescence ratio
CGGTTAGGTG | 1.06 ± 0.021
CGGTTATAGG | 0.967 ± 0.012
CGGTTATGGC | 0.978 ± 0.019
CGGTTCCCTA | 0.978 ± 0.033
CGGTTCGAGT | 1.01 ± 0.035
CGGTTGAATG | 0.98841 ± 0.00073
CGGTTGATCT | 1.09 ± 0.13
CGGTTGGCAA | 1.09 ± 0.054
CGGTTGGCCA | 1 ± 0.018
CGGTTGGGTC | 1.05 ± 0.051
CGGTTGGTGG | 1.01 ± 0.014
CGGTTTAAGC | 0.994 ± 0.046
CGGTTTAATA | 1.03 ± 0.07
CGGTTTACGT | 0.997 ± 0.018
CGGTTTAGGT | 0.951 ± 0.017
CGGTTTGATT | 1.04 ± 0.073
CGGTTTGCAG | 0.972 ± 0.043
CGGTTTGGAG | 0.995 ± 0.056
CGGTTTTACT | 1.04 ± 0.021
